Measurements: article PMC3524116

Target: Recombinant His6-tagged UVI31+ protein from C. reinhardtii (C. reinhardtii)
Test: SEC; gel filtration on a Sephadex G75 column in 50 mM sodium phosphate (pH 7.6), 50 mM NaCl; major peak at 87 ml (monomer), small hump at 68-75 ml (dimer)

- stoichiometry N: 2
Substance: Recombinant His6-tagged UVI31+ protein from C. reinhardtii (natural protein)
